In PMC3515676 one finds Km and Vmax data, which are given here for 1 protein.

Experiment in all cases: purified protein
What all share (type): biochemical, Homo sapiens
What all share (conditions): 14 μM PAP[35S], 50 mM Mops pH 7.0, 37 °C

Substrate in series [1]: C[C@H](CCC(=O)NCC(=O)O)[C@H]1CC[C@H]2[C@@H]3[C@H](O)C[C@@H]4C[C@H](O)CC[C@]4(C)[C@H]3CC[C@]12C
Substrate in series [2]: C[C@H](CCC(=O)O)[C@H]1CC[C@H]2[C@@H]3CC[C@@H]4C[C@H](O)CC[C@]4(C)[C@H]3CC[C@]12C
Substrate in series [3]: C[C@H](CCC(=O)O)[C@H]1CC[C@H]2[C@@H]3[C@H](O)C[C@@H]4C[C@H](O)CC[C@]4(C)[C@H]3CC[C@]12C
Substrate in series [4]: C[C@H](CCCO)[C@H]1CC[C@H]2[C@@H]3[C@H](O)C[C@H]4C[C@H](O)CC[C@]4(C)[C@H]3C[C@H](O)[C@]12C

Usually Km stands for the substrate concentration at which the rate is half of its maximum. By Vmax is commonly meant the rate approached at saturating substrate.

B1: human SULT2A1 (hSULT2A1) (Homo sapiens) (protein)
chain: MSDDFLWFEGIAFPTMGFRSETLRKVRDEFVIRDEDVIILTYPKSGTNWLAEILCLMHSKGDAKWIQSVPIWERSPWVESEIGYTALSETESPRLFSSHLPIQLFPKSFFSSKAKVIYLMRNPRDVLVSGYFFWKNMKFIKKPKSWEEYFEWFCQGTVLYGSWFDHIHGWMPMREEKNFLLLSYEELKQDTGRTIEKICQFLGKTLEPEELNLILKNSSFQSMKENKMSNYSLLSVDYVVDKAQLLRKGVSGDWKNHFTVAQAEDFDKLFQEKMADLPRELFPWE
For B1, the Michaelis constant (Km) was found to be 36.73 ± 2.47 µM in series [1], 8.36 ± 0.39 µM in series [2], 42.30 ± 2.97 µM in series [3] and 49.38 ± 4.62 µM in series [4]. In addition, the Vmax was 0.0038 µmol/min/mg in series [1], 0.036 µmol/min/mg in series [2], 0.00395 µmol/min/mg in series [3] and 0.00549 µmol/min/mg in series [4].
